According to patent US20140322717:

Tested on: TspRI (Thermus sp.?)
Experiment: cleavage_in_vitro
Details: destruction of wild type PCR product during qPCR, 85 C denaturation

Sequence: AGACATACTTATTGACTCTAAGAGGAAAGATGAAGTACTATGTTTTAAAGAATATTATATTACAGAATTATAGAAATTAGATCTCTTACCTAAACTCTTCATAAAGCTTGCTCTGATAGGAAAATGAGATCTACTGTTTTCCTTTACTTACTACACCTCAGATATATTTCTTCATGAAGACCTCACAGTAAAAATAGGTGATTTTGGTCTAGCTACAGTGAAATCTCGATGGAGTGAGTCCCATCAGTTTGAACAGTTGTCTGGATCCATTTTGTGGATGGTAAGAATTGAGGCTATTTTTCCACTGATTAAATTTTTGGCCCTGAGATGCTGCTGAGTTACTAGAAAGTCATTGAAGGTCTCAACTATAGTATTTTCATAGTTCCCAGT (double strand) [B-raf synthetic wild type template]
- activity: > 99%
